“And” between values parts separate entries of the source, which are not always exact repeats. Identical values can stand only once. Bridge positions count the residues as written; N and C are the ends. Ends that are not written are not given here. * marks the point of attachment. Butanoyl(4-pyren-1-yl) = O=C(CCCc1ccc2ccc3cccc4ccc1c2c34)*; Tpa = triphenylacetyl, O=C(C(c1ccccc1)(c1ccccc1)c1ccccc1)*; Acetyl(1-pyrenyl) = O=C(Cc1ccc2ccc3cccc4ccc1c2c34)*; Phenylacetyl(4-Ph) = O=C(Cc1ccc(-c2ccccc2)cc1)*; Benzoyl(4-heptyl) = CCCCCCCc1ccc(C(=O)*)cc1; Acetyl(1-naphthyl) = O=C(Cc1cccc2ccccc12)*; Diphenylacetyl = O=C(C(c1ccccc1)c1ccccc1)*; cPrCO(2,2,3,3-Me4) = CC1(C)C(C(=O)*)C1(C)C; Ibuprofenoyl = CC(C)Cc1ccc(C(C)C(=O)*)cc1; Hexanoyl(6-Ph) = O=C(CCCCCc1ccccc1)*; PhAc = O=C(Cc1ccccc1)*
Key:
[1] = molecular target: human α4β7 integrin (human), P13612; test: inhibition of HUT 78 cell adhesion to murine MAdCAM-1/mCk
[2] = molecular target: human α4β7 integrin (human), P13612; test: inhibition of HUT 78 cell adhesion to murine MAdCAM-1/mCk at 500 µM
[3] = molecular target: human α4β7 integrin (human) (UniProt P13612); test: inhibition of HUT 78 cell adhesion to murine MAdCAM-1/mCk
[4] = molecular target: human α4β7 integrin (human) (UniProt P13612); test: inhibition of HUT 78 cell adhesion to murine MAdCAM-1/mCk at 500 µM
[5] = molecular target: human α4β7 integrin (human) (UniProt P13612); test: inhibition of HUT 78 cell adhesion to murine MAdCAM-1/mCk at 50 µM
[6] = molecular target: human α4β7 integrin (human), P13612; test: inhibition of RPMI 8866 cell adhesion to huMAdCAM-1-Ig
[7] = molecular target: human α4β7 integrin (human), P13612; test: inhibition of HUT 78 cell adhesion to murine MAdCAM-1/mCk at 250 µM

Binder	IC50 [1]	% Adhesion Inhibition [2]	IC50 [3]	also measured
Ac-LDASL (not fully specified (C-terminus); printed as Ac-Leu-Asp-Ala-Ser-Leu) [Ac-Leu-Asp-Ala-Ser-Leu]	1000 µM	47%	–	–
Ibuprofenoyl-LDTSL (not fully specified (C-terminus); printed as Impa-Leu-Asp-Thr-Ser-Leu) [Impa-Leu-Asp-Thr-Ser-Leu]	–	–	1140 µM	% Adhesion Inhibition [4]: 44%
Ac-WRGLDTS (not fully specified (C-terminus); printed as Ac-Trp-Arg-Gly-Leu-Asp-Thr-Ser) [Ac-Trp-Arg-Gly-Leu-Asp-Thr-Ser]	862 µM	44%	–	–
Diphenylacetyl-LDTSL (not fully specified (C-terminus); printed as Dpa-Leu-Asp-Thr-Ser-Leu) [Dpa-Leu-Asp-Thr-Ser-Leu]	–	–	11 µM	–
{cPrCO(2,2,3,3-Me4)}-LDTSL [Tpc-Leu-Asp-Thr-Ser-Leu]	–	–	121 µM	% Adhesion Inhibition [4]: 39%
Ac-LDTSL-NH2 [Ac-Leu-Asp-Thr-Ser-Leu]	–	–	530 µM and 278 µM	% Adhesion Inhibition [4]: 50% and 71%
LYTSL (modifications not checked) [Pba-Leu-Tyr-Thr-Ser-Leu]	30 µM	100%	–	–
Ac-WRGLDT (not fully specified (C-terminus); printed as Ac-Trp-Arg-Gly-Leu-Asp-Thr) [Ac-Trp-Arg-Gly-Leu-Asp-Thr]	725 µM	46%	–	–
PhAc-LDTSL (not fully specified (C-terminus); printed as Pha-Leu-Asp-Thr-Ser-Leu) [Pha-Leu-Asp-Thr-Ser-Leu]	–	–	2130 µM	% Adhesion Inhibition [4]: 38%
Ac-LDVSL (not fully specified (C-terminus); printed as Ac-Leu-Asp-Val-Ser-Leu) [Ac-Leu-Asp-Val-Ser-Leu]	71 µM	–	–	–
Ac-LDTSL (not fully specified (C-terminus); printed as Ac-Leu-Asp-Thr-Ser-Leu) [Ac-Leu-Asp-Thr-Ser-Leu (00389-1A)]	–	–	205 µM	% Adhesion Inhibition [4]: 29%
Tpa-LDTSL [Tpa-Leu-Asp-Thr-Ser-Leu]	–	–	0.3 µM	–
Ac-LDTTL (not fully specified (C-terminus); printed as Ac-Leu-Asp-Thr-Thr-Leu) [Ac-Leu-Asp-Thr-Thr-Leu]	101 µM	98%	–	–
{Benzoyl(4-heptyl)}-LDTSL (not fully specified (C-terminus); printed as Hbz-Leu-Asp-Thr-Ser-Leu) [Hbz-Leu-Asp-Thr-Ser-Leu]	–	–	401 µM	% Adhesion Inhibition [4]: 51%
Ac-GLDTS (not fully specified (C-terminus); printed as Ac-Gly-Leu-Asp-Thr-Ser) [Ac-Gly-Leu-Asp-Thr-Ser]	745 µM	43%	–	–
{Phenylacetyl(4-Ph)}-LDTSL (not fully specified (C-terminus); printed as Bipa-Leu-Asp-Thr-Ser-Leu) [Bipa-Leu-Asp-Thr-Ser-Leu]	–	–	485 µM	% Adhesion Inhibition [4]: 54%
{Butanoyl(4-pyren-1-yl)}-LDTSL (not fully specified (C-terminus); printed as Pba-Leu-Asp-Thr-Ser-Leu) [Pba-Leu-Asp-Thr-Ser-Leu (00386-1A)]	–	–	2.8 µM	% Adhesion Inhibition [5]: 88%

Binder	IC50 [1]	% Adhesion Inhibition [2]	IC50 [3]	also measured
Ac-RGLDT (not fully specified (C-terminus); printed as Ac-Arg-Gly-Leu-Asp-Thr) [Ac-Arg-Gly-Leu-Asp-Thr]	542 µM	48%	–	–
Ac-HWRGLDT (not fully specified (C-terminus); printed as Ac-His-Trp-Arg-Gly-Leu-Asp-Thr) [Ac-His-Trp-Arg-Gly-Leu-Asp-Thr]	584 µM	49%	–	–
{Hexanoyl(6-Ph)}-LDTSL (not fully specified (C-terminus); printed as Phx-Leu-Asp-Thr-Ser-Leu) [Phx-Leu-Asp-Thr-Ser-Leu]	–	–	818 µM	% Adhesion Inhibition [4]: 32%
{Acetyl(1-naphthyl)}-LDTSL (not fully specified (C-terminus); printed as Npa-Leu-Asp-Thr-Ser-Leu) [Npa-Leu-Asp-Thr-Ser-Leu]	–	–	548 µM	% Adhesion Inhibition [4]: 39%
Ac-LETSL (not fully specified (C-terminus); printed as Ac-Leu-Glu-Thr-Ser-Leu) [Ac-Leu-Glu-Thr-Ser-Leu]	60.7 µM	98%	–	–
LDTSL (modifications not checked) [R1-Leu-Asp-Thr-Ser-Leu, L# 1491 (Table 4)]	–	–	–	IC50 [6]: 3.4 µM
Ac-LFTSL (not fully specified (C-terminus); printed as Ac-Leu-Phe-Thr-Ser-Leu) [Ac-Leu-Phe-Thr-Ser-Leu]	300 µM	29%	–	–
Ac-LDSSL (not fully specified (C-terminus); printed as Ac-Leu-Asp-Ser-Ser-Leu) [Ac-Leu-Asp-Ser-Ser-Leu]	611 µM	38%	–	–
Ac-LDTSF (not fully specified (C-terminus); printed as Ac-Leu-Asp-Thr-Ser-Phe) [Ac-Leu-Asp-Thr-Ser-Phe]	144 µM	86%	–	–
Ac-CLDTSLC (disulfide 1-7) [Ac-Cys*-Leu-Asp-Thr-Ser-Leu-Cys*]	102 µM	–	–	% Adhesion Inhibition [7]: 51%
LATSL (modifications not checked) [Pba-Leu-Ala-Thr-Ser-Leu]	28 µM	–	–	% Adhesion Inhibition [7]: 100%
PLDTSL (modifications not checked) [Pba-Pro-Leu-Asp-Thr-Ser-Leu]	47 µM	–	–	–
Ac-GLDTSL (not fully specified (C-terminus); printed as Ac-Gly-Leu-Asp-Thr-Ser-Leu) [Ac-Gly-Leu-Asp-Thr-Ser-Leu]	339 µM	58%	–	–
{Acetyl(1-pyrenyl)}-LDTSL (not fully specified (C-terminus); printed as Paa-Leu-Asp-Thr-Ser-Leu) [Paa-Leu-Asp-Thr-Ser-Leu]	–	–	0.5 µM	–
Ac-RGLDTSL (not fully specified (C-terminus); printed as Ac-Arg-Gly-Leu-Asp-Thr-Ser-Leu) [Ac-Arg-Gly-Leu-Asp-Thr-Ser-Leu]	1580 µM	35%	–	–
Ac-RGLDTS (not fully specified (C-terminus); printed as Ac-Arg-Gly-Leu-Asp-Thr-Ser) [Ac-Arg-Gly-Leu-Asp-Thr-Ser]	1790 µM	31%	–	–
